B1: Glutamate receptor ionotropic, kainate 2 (Rattus norvegicus (Rat)), P42260 (parent)
chain: MKIISPVLSNLVFSRSIKVLLCLLWIGYSQGTTHVLRFGGIFEYVESGPMGAEELAFRFAVNTINRNRTLLPNTTLTYDTQKINLYDSFEASKKACDQLSLGVAAIFGPSHSSSANAVQSICNALGVPHIQTRWKHQVSDNKDSFYVSLYPDFSSLSRAILDLVQFFKWKTVTVVYDDSTGLIRLQELIKAPSRYNLRLKIRQLPADTKDAKPLLKEMKRGKEFHVIFDCSHEMAAGILKQALAMGMMTEYYHYIFTTLDLFALDVEPYRYSGVNMTGFRILNTENTQVSSIIEKWSMERLQAPPKPDSGLLDGFMTTDAALMYDAVHVVSVAVQQFPQMTVSSLQCNRHKPWRFGTRFMSLIKEAHWEGLTGRITFNKTNGLRTDFDLDVISLKEEGLEKIGTWDPASGLNMTESQKGKPANITDSLSNRSLIVTTILEEPYVLFKKSDKPLYGNDRFEGYCIDLLRELSTILGFTYEIRLVEDGKYGAQDDVNGQWNGMVRELIDHKADLAVAPLAITYVREKVIDFSKPFMTLGISILYRKPNGTNPGVFSFLNPLSPDIWMYILLAYLGVSCVLFVIARFSPYEWYNPHPCNPDSDVVENNFTLLNSFWFGVGALMQQGSELMPKALSTRIVGGIWWFFTLIIISSYTANLAAFLTVERMESPIDSADDLAKQTKIEYGAVEDGATMTFFKKSKISTYDKMWAFMSSRRQSVLVKSNEEGIQRVLTSDYAFLMESTTIEFVTQRNCNLTQIGGLIDSKGYGVGTPMGSPYRDKITIAILQLQEEGKLHMMKEKWWRGNGCPEEESKEASALGVQNIGGIFIVLAAGLVLSVFVAVGEFLYKSKKNAQLEKRSFCSAMVEELRMSLKCQRRLKHKPQAPVIVKTEEVINMHTFNDRRLPGKETMA

Variants of: B1
Conditions: with MAP3K11, Q16584
MAP3K11, Q16584, sequence (Q16584 whole entry, looked up): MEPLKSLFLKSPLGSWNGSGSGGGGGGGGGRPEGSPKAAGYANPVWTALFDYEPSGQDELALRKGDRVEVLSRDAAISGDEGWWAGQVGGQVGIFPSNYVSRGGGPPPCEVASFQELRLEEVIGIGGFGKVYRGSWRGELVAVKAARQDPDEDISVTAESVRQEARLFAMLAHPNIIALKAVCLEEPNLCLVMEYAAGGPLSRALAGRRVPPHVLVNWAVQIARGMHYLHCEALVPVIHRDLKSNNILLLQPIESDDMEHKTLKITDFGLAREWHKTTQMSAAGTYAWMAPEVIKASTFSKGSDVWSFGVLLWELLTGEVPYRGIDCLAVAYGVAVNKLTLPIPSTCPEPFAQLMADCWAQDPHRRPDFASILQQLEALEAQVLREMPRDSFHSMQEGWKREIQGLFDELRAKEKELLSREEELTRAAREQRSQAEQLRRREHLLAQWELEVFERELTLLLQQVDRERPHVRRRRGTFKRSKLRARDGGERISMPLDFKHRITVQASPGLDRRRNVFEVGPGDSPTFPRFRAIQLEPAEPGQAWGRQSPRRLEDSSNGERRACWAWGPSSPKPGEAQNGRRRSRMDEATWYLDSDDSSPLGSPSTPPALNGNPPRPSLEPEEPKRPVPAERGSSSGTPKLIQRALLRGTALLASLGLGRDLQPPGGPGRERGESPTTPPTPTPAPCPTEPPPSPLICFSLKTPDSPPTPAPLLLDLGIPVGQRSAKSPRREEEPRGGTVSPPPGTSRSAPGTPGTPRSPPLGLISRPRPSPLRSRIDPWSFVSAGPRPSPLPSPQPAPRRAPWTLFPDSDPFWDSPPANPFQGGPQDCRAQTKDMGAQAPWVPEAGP

Row | effect of a mutation on the interaction | Variant
1 | decreasing interaction | K886R
